Results taken from patent US20060003399A1, “High throughput actin polymerization assay” (Cytokinetics, Inc., priority 2004, published 2006).
Entries after “also recorded” stand apart in the source; their conditions may differ. Like-named read-outs stand apart in the source and are kept apart here.

B1: WASP VCA Domain: VCA domain of WASP (SEQ ID NO:6) (protein, listed as Homo sapiens)
chain: GGRGALLDQIRQGIQLNKTPGAPESSALQPPPQSSEGLVGALMHVMQKRSRAIHSSDEGEDQAGDEDEDDEWDD
modifications: (1)..(74) WASP VCA Domain
B2: His6 tagged C. albicans FH1-FH2 domain: C. albicans FOR1 M972 to K1598 (FH1 and FH2 domains), C-terminally tagged with His6 (protein)
chain: MDPKFLQELSLKVGKAEPIQDANNKNQFGGPLSSSPEDVSQKHKTSGDSSDKDKVLSSPISSNDIKSPETGNSTTSSAAPPPPPPPPPPPPPPLPPILGGNNSSAAPPPPPPPPPPPAFLNGSGSVIPPAPPLPPPSSGRSSRSVPSTVTKSSGSAFDKIPRPKKKLKQLHWEKIDHSQVGNSFWNDPNTHTLVDDLMSKGIFDEIELIFAAKEAKKLATKKKEDLDKVTFLARDISQQFSINLHAFNSFSDEEFVLKVLRCDKDVLTNPAVLDFFGKEDIVEITNTLARNFEPYSTDYKTEEITKPEKDPNELQRPDRIYLELMYNLQHYWKSRTRALNVVVNYDKDVYEYVKKLRLIDEAVDSIKNSKHLKGVFEIILAVGNYMNDSAKQAHGFKLSSLQRLSFMKDEKNSMTFLHYVEKVIRTQYPEFLEFINELSCCNEITKFSIENINNDCKEYARAIKNVQSSIDIGNLSDVSKFHPSDRVLKAVLPALPRAKRKAELLLDQANYTMKEFDDLMKYFGEDPTDQFVKNSFISKFTDFMKDFKRVQAENIKREEELRVYEQRKKLLEKPKSSNNGDSNASDQDGESNEGDGGVMDSLLQRLKAAAPTKGESASARKKALMRK
modifications: left off: small tags and cut ends
B3: GST tagged C. albicans FH1-FH2 domain: C. albicans FOR1 M972 to K1598 (FH1 and FH2 domains), N-terminally tagged with GST-TEV (protein)
chain: MDPKFLQELSLKVGKAEPIQDANNKNQFGGPLSSSPEDVSQKHKTSGDSSDKDKVLSSPISSNDIKSPETGNSTTSSAAPPPPPPPPPPPPPPLPPILGGNNSSAAPPPPPPPPPPPAFLNGSGSVIPPAPPLPPPSSGRSSRSVPSTVTKSSGSAFDKIPRPKKKLKQLHWEKIDHSQVGNSFWNDPNTHTLVDDLMSKGIFDEIELIFAAKEAKKLATKKKEDLDKVTFLARDISQQFSINLHAFNSFSDEEFVLKVLRCDKDVLTNPAVLDFFGKEDIVEITNTLARNFEPYSTDYKTEEITKPEKDPNELQRPDRIYLELMYNLQHYWKSRTRALNVVVNYDKDVYEYVKKLRLIDEAVDSIKNSKHLKGVFEIILAVGNYMNDSAKQAHGFKLSSLQRLSFMKDEKNSMTFLHYVEKVIRTQYPEFLEFINELSCCNEITKFSIENINNDCKEYARAIKNVQSSIDIGNLSDVSKFHPSDRVLKAVLPALPRAKRKAELLLDQANYTMKEFDDLMKYFGEDPTDQFVKNSFISKFTDFMKDFKRVQAENIKREEELRVYEQRKKLLEKPKSSNNGDSNASDQDGESNEGDGGVMDSLLQRLKAAAPTKGESASARKKALMRK
modifications: left off: a dimerising Fc or GST
notes: C. albicans FOR1 M972 to K1598 (FH1 and FH2 domains), N-terminally tagged with GST-TEV
B4: 105WASP: amino acids 105-501 of SEQ ID NO:2; WASP lacking the WH1 domain (protein, listed as Homo sapiens)
chain: LVYSTPTPFFHTFAGDDCQAGLNFADEDEAQAFRALVQEKIQKRNQRQSGDRRQLPPPPTPANEERRGGLPPLPLHPGGDQGGPPVGPLSLGLATVDIQNPDITSSRYRGLPAPGPSPADKKRSGKKKISKADIGAPSGFKHVSHVGWDPQNGFDVNNLDPDLRSLFSRAGISEAQLTDAETSKLIYDFIEDQGGLEAVRQEMRRQEPLPPPPPPSRGGNQLPRPPIVGGNKGRSGPLPPVPLGIAPPPPTPRGPPPPGRGGPPPPPPPATGRSGPLPPPPPGAGGPPMPPPPPPPPPPPSSGNGPAPPPLPPALVPAGGLAPGGGRGALLDQIRQGIQLNKTPGAPESSALQPPPQSSEGLVGALMHVMQKRSRAIHSSDEGEDQAGDEDEDDEWD
modifications: (1)..(502) FL-WASP
B5: 98 N-WASP: amino acids 98-501 of SEQ ID NO:4 (protein, listed as Homo sapiens)
chain: FVYNSPRGYFHTFAGDTCQVALNFANEEEAKKFRKAVTDLLGRRQRKSEKRRDPPNGPNLPMATVDIKNPEITTNRFYGPQVNNISHTKEKKKGKAKKKRLTKADIGTPSNFQHIGHVGWDPNTGFDLNNLDPELKNLFDMCGISEAQLKDRETSKVIYDFIEKTGGVEAVKNELRRQAPPPPPPSRGGPPPPPPPPHNSGPPPPPARGRGAPPPPPSRAPTAAPPPPPPSRPSVAVPPPPPNRMYPPPPPALPSSAPSGPPPPPPSVLGVGPVAPPPPPPPPPPPGPPPPPGLPSDGDHQVPTTAGNKAALLDQIREGAQLKKVEQNSRPVSCSGRDALLDQIRQGIQLKSVADGQESTPPTPAPTSGIVGALMEVMQKRSKAIHSSDEDEDEDDEEDFEDDD
modifications: (1)..(505) FL-N-WASP
B6: GST tagged C. albicans FH2 domain: C. albicans FOR1 A1127 to K1598 (FH2 domain only), N-terminally tagged with GST-TEV (protein)
chain: AFDKIPRPKKKLKQLHWEKIDHSQVGNSFWNDPNTHTLVDDLMSKGIFDEIELIFAAKEAKKLATKKKEDLDKVTFLARDISQQFSINLHAFNSFSDEEFVLKVLRCDKDVLTNPAVLDFFGKEDIVEITNTLARNFEPYSTDYKTEEITKPEKDPNELQRPDRIYLELMYNLQHYWKSRTRALNVVVNYDKDVYEYVKKLRLIDEAVDSIKNSKHLKGVFEIILAVGNYMNDSAKQAHGFKLSSLQRLSFMKDEKNSMTFLHYVEKVIRTQYPEFLEFINELSCCNEITKFSIENINNDCKEYARAIKNVQSSIDIGNLSDVSKFHPSDRVLKAVLPALPRAKRKAELLLDQANYTMKEFDDLMKYFGEDPTDQFVKNSFISKFTDFMKDFKRVQAENIKREEELRVYEQRKKLLEKPKSSNNGDSNASDQDGESNEGDGGVMDSLLQRLKAAAPTKGESASARKKALMRK
modifications: left off: a dimerising Fc or GST
notes: C. albicans FOR1 A1127 to K1598 (FH2 domain only), N-terminally tagged with GST-TEV

Key:
Arp2/3 = test: Activities of WASP/N-WASP proteins (Table 4); format: biochemical
Excerpt: The term “variant” or “analogue” generally refers to proteins that are functional equivalents to a native sequence that have similar amino acid sequences and retain, to some extent, one of the activities of the corresponding native protein. Variants/analogues include fragments that retain one or more activities of the corresponding native protein. Examples of WASP and N-WASP activity include, but are not limited to, capacity to: 1) bind Arp2/3 and actin; 2) activate the actin nucleation activity of Arp2/3 (descriptions of assays to detect nucleation activity are provided below); 3) bind an upstream regulator; 4) be regulated by one or more upstream regulators, thereby rendering the WASP or N-WASP protein able to activate the nucleation activity of Arp2/3; and 5) bind downstream regulators initiating signal transduction cascades. Some of the WASP and N-WASP proteins that are provided are able to recapitulate the full activity of WASP or N-WASP, which means that these proteins have all five of the activities just listed. […]
A third class of NPF proteins that can be utilized in some assays include WASP, N-WASP and SCAR proteins that include the WH1 domain but in which the PolyPro region is (e.g., deleted). A fourth class of NPF proteins that can be utilized in some assays are WASP, N-WASP and SCAR deletion mutants in which the PolyPro region is maintained but an N-terminal region (e.g., WH1 domain) is at least partially removed. Some proteins in this class are ones that include the B, CRIB/GBD (WASP and N-WASP), PolyPro and VCA domains, but in which some or all of the WH1 has been removed. One specific example is 98N-WASP, which includes amino acids 98-501 of SEQ ID NO:4. Another specific example is the 105WASP protein, which includes amino acids 105-501 of SEQ ID NO:2 (see FIG. 4B).
As indicated in this table, specific examples of fusion proteins that can be utilized include those that include a segment that encodes full-length WASP or N-WASP, including: Myc-WASP-TAP (SEQ ID NO:14); and Myc-N-WASP-TAP (SEQ ID NO: 16). Examples of fusion proteins that include a WASP or N-WASP deletion mutant domain include: GST-105WASP (SEQ ID NO:18); Myc-105WASP-TAP (SEQ ID NO:20); GST-tev-98N-WASP (SEQ ID NO:22); and Myc-98N-WASP-TAP (SEQ ID NO:24). The TAP tag in these particular fusion proteins has the general structure CBP-tev-ProtA (SEQ ID NO:36). Fusion proteins such as those listed in Table 4 can in some instances be utilized directly, or after one or both of the C- and N-terminal tags are removed. For example, the fusion proteins listed in Table 4 as having a TAP tag can be used once the TAP tag has been cleaved off and/or after the C-terminal tag has been removed.

[1] = Storage stability of purified formin proteins at -80 C; format: physicochemical; conditions: storage at −80° C.
Method: The formins were purified on either Ni-NTA column (His6 tagged proteins) or Gluthatione-Sepharose (GST tagged proteins). Resins were equilibrated with lysis buffer. Clear crude extracts were loaded onto column, columns were washed with lysis buffer followed by washing buffer (50 mM Tris pH 8.0, 50 mM KCl, 1 mM DTT, 1 mM MgCl, 3% glycerol), and proteins were eluted with either 300 mM imidazole (His6-tagged proteins) or 10 mM glutathione (GS-tagged proteins). Eluted proteins were analyzed by SDS PAGE (4-20%) (Invitrogen, San Diego Calif.), fractions were pooled and protein concentrations were measured by Coomassie Plus (Bradford)(Bio-Rad, Hercules, Calif.). Purified proteins were “drop-frozen” in liquid nitrogen and stored at −80° C.

actin = target: T1, actin (Gallus gallus, UniProt P68139); test: Formin nucleated actin/pyrene-actin polymerization assay; format: biochemical, chicken
T1 construct: from tissue
Method: G-Actin: Typically chicken actin was used. G-actin can be purchased from Cytoskeleton, Inc. It can also be purified according to Pardee and Spudich (1982) Methods of Cell Biol. 24:271-89, and subsequently gel filtered as discussed by MacLean-Fletcher and Pollard (1980) Biochem Biophys. Res. Commun. 96:18-27.
Acrylodan-Actin and Pyrene-Actin: Typically chicken actin was utilized. Pyrene labeled actin was prepared according to methods described in Kouyama and Mihashi (1981) Eur. J. Biochem. 114:33-38 or as described by Cooper et al. (1983) J. Muscle Res. Cell Motility 4:253-62. Alternatively, it can be purchased from Cytoskeleton, Inc. Acrylodan-labeled actin was prepared by modification of the pyrene-labeling protocol described in Cooper et al. (1983) J. Muscle Res. Cell Motility 4:253-62.
G-actin and pyrene-actin were prepared as described in Example 7.
Activity of purified formins from the constructs described above in Example 12 was assessed in an actin/pyrene-actin polymerization assay. Polymerization was carried out in G-buffer and was initiated by addition of 10× polymerization mix.
Gel filtered actin and pyrene-actin were diluted in G-buffer to the indicated final concentrations. Either purified C. albicans formin domains or formin domain-enriched fractions were added together with polymerization mix to start actin polymerization. Formin nucleated actin polymerization was monitored on a Gemini plate reader (excitation at 365 nm and emission at 407 nm). Protein components in the actin polymerization assay are provided below.

Row | Molecule | Activate Arp2/3? (Arp2/3) | Regulated By Which Upstream Regulators? (Arp2/3) | time stable at −80° C. [1] | also measured
1 | B1 | Yes | None | – | –
2 | B2 | – | – | several | formin concentration used to observe saturation (actin): 300 to 500 nM; actin nucleation activity of the formin (in words) (actin; actin […], pyrene actin 0.5 μM): active, i.e., nucleates actin polymerization
3 | B3 | – | – | more than 6 months | biochemical properties compared with the other formin constructs (in words) (actin): best biochemical properties in terms of solubility, stability and activity; lag phase (actin; 100 nM formin): less than 100 s; time to reach saturation phase (actin; 100 nM formin): 400 s; activity relative to the formin purified in the single step purification (actin; after further purification on SP Sepharose): approximately 3 fold
4 | B4 | activate actin nucleation by Arp2/3 and Yes | regulated by Cdc42, PIP2, Nck1, and Rc1; also recorded: Cdc42, PIP2, Nck and Rac1 | – | –
5 | B5 | Yes | Cdc42, PIP2, Nck and Rac1 | – | Activate Arp2/3? (Arp2/3; listed as 98N-WASP): activate actin nucleation by Arp2/3; Regulated By Which Upstream Regulators? (Arp2/3; listed as 98N-WASP): regulated by Cdc42, PIP2, Nck1, and Rc1
6 | B6 | – | – | several | –
